The text below walks through data of paper PMC12143351.

Experiment [1] deals with WT-nsp5_(BA.1), SARS-CoV-2 nsp5 protease of the Omicron (BA.1) strain (SARS-CoV-2 (Omicron BA.1)). The experiment in a line: SEC-MALS. (In gel filtration, larger molecules generally elute earlier.)
The target is the same in experiment [2]. Description: SEC-MALS. The source holds these as a separate data set.

Where two headings read alike, the source gives them in different places.

One may read the stoichiometry N as the number of molecules, sites or subunits per partner or assembly. As for “WT-nsp5_(BA.1), SARS-CoV-2 nsp5 protease of the Omicron (BA.1) strain (enzyme)”, the percent dimeric in experiment [1] was 64%; in experiment [2], 72%. The same substance showed a stoichiometry N in experiment [2] of 2.
